Experimental data as given in patent US6921641.

Experiments:
[1] = biological target: T1, Bacillus caldotenax (Bca) UvrA protein
T1 chain: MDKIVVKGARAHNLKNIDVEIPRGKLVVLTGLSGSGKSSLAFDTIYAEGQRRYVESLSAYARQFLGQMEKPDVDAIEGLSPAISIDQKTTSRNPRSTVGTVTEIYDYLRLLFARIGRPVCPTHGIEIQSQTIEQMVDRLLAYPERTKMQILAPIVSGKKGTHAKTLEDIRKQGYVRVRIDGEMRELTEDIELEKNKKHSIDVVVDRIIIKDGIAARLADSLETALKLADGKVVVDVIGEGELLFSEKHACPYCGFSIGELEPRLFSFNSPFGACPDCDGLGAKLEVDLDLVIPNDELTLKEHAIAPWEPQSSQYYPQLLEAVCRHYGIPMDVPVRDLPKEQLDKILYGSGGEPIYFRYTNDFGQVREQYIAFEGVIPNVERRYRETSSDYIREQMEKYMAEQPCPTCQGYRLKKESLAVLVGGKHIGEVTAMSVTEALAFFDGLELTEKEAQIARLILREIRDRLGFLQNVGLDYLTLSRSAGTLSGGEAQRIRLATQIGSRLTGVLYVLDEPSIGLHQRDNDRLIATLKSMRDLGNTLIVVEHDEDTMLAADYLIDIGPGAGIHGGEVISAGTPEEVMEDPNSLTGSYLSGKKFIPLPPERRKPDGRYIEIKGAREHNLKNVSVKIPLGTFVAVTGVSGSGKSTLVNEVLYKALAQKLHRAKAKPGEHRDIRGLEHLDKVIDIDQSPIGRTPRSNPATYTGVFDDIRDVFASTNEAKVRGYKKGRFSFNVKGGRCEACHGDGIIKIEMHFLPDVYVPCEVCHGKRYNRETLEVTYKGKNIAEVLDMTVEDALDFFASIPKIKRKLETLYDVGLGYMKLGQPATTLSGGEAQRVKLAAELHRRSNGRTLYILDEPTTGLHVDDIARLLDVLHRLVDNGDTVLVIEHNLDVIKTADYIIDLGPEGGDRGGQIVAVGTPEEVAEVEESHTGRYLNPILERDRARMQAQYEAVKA

[2] = biological target: T2, Escherichia coli UvrB protein
T2 chain: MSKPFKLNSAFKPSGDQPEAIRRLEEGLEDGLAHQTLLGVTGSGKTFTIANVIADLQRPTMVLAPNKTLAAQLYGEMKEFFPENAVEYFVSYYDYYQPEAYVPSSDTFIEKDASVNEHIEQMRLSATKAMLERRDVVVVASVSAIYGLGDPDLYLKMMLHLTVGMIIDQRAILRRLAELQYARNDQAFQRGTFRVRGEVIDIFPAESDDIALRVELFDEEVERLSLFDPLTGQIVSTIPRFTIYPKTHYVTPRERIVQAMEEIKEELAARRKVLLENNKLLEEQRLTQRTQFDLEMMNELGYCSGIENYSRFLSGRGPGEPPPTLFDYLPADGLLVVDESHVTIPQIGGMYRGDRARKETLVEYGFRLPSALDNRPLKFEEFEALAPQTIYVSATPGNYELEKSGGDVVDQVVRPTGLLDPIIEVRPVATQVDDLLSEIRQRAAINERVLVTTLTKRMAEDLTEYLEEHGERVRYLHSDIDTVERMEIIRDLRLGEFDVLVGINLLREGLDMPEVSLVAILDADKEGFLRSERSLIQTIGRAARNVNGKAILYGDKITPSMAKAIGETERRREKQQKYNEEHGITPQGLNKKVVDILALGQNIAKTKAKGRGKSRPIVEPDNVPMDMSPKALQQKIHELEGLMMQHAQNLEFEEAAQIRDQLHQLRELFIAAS

B1: Bacillus caldotenax (Bca) UvrB protein, wild type (protein)
chain: VEGRFQLVAPYEPQGDQPQAIAKLVDGLRRGVKHQTLLGATGTGKTFTISNVIAQVNKPTLVIAHNKTLAGQLYSELKEFFPHNAVEYFVSYYDYYQPEAYVPQTDTYIEKDAKINDEIDKLRHSATSALFERRDVIIVASVSCIYGLGSPEEYRELVVSLRVGMEIERNALLRRLVDIQYDRNDIDFRRGTFRVRGDVVEIFPASRDEHCIRVEFFGDEIERIREVDALTGEVLGEREHVAIFPASHFVTREEKMRLAIQNIEQELEERLAELRAQGKLLEAQRLEQRTRYDLEMMREMGFCSGIENYSRHLALRPPGSTPYTLLDYFPDDFLIIVDESHVTLPQLRGMYNGDRARKQVLVDHGFRLPSALDNRPLTFEEFEQKINQIIYVSATPGPYELEHSPGVVEQIIRPTGLLDPTIDVRPTKGQIDDLIGEIRERVERNERTLVTTLTKKMAEDLTDYLKEAGIKVAYLHSEIKTLERIEIIRDLRLGKYDVLVGINLLREGLDIPEVSLVAILDADKEGFLRSERSLIQTIGRAARNANGHVIMYADTITKSMEIAIQETKRRRAIQEEYNRKHGIVPRTVKKEIRDVIRATYAAEETEMYEAKPAAAMTKQEREELIRTLEAEMKEAAKALDFERAAQLRDIIFELKAEG
Work on B1 yielded an ATPase activity (UvrA + UvrB + UV-DNA) (mol of ATP hydrolyzed/mol of protein/min) [1] of 22 and an ATPase activity (UvrA + UvrB) (mol of ATP hydrolyzed/mol of protein/min) [1] of 18.3.

B2: β-hairpin deletion mutant of the B. caldotenax UvrB protein (Δβh UvrB) (protein)
chain: VEGRFQLVAPYEPQGDQPQAIAKLVDGLRRGVKHQTLLGATGTGKTFTISNVIAQVNKPTLVIAHNKTLAGQLYSELKEFFPHNAVEYFVSYYDYYGAKINDEIDKLRHSATSALFERRDVIIVASVSCIYGLGSPEEYRELVVSLRVGMEIERNALLRRLVDIQYDRNDIDFRRGTFRVRGDVVEIFPASRDEHCIRVEFFGDEIERIREVDALTGEVLGEREHVAIFPASHFVTREEKMRLAIQNIEQELEERLAELRAQGKLLEAQRLEQRTRYDLEMMREMGFCSGIENYSRHLALRPPGSTPYTLLDYFPDDFLIIVDESHVTLPQLRGMYNGDRARKQVLVDHGFRLPSALDNRPLTFEEFEQKINQIIYVSATPGPYELEHSPGVVEQIIRPTGLLDPTIDVRPTKGQIDDLIGEIRERVERNERTLVTTLTKKMAEDLTDYLKEAGIKVAYLHSEIKTLERIEIIRDLRLGKYDVLVGINLLREGLDIPEVSLVAILDADKEGFLRSERSLIQTIGRAARNANGHVIMYADTITKSMEIAIQETKRRRAIQEEYNRKHGIVPRTVKKEIRDVIRATYAAEETEMYEAKPAAAMTKQEREELIRTLEAEMKEAAKALDFERAAQLRDIIFELKAEG
B2 was tested, and the ATPase activity (UvrA + Δβh UvrB + UV-DNA) (mol of ATP hydrolyzed/mol of protein/min) [1] was 29 and the ATPase activity (UvrA + Δβh UvrB) (mol of ATP hydrolyzed/mol of protein/min) [1] was 19.

B3: Bacillus caldotenax (Bca) UvrA protein (protein)
chain: MDKIVVKGARAHNLKNIDVEIPRGKLVVLTGLSGSGKSSLAFDTIYAEGQRRYVESLSAYARQFLGQMEKPDVDAIEGLSPAISIDQKTTSRNPRSTVGTVTEIYDYLRLLFARIGRPVCPTHGIEIQSQTIEQMVDRLLAYPERTKMQILAPIVSGKKGTHAKTLEDIRKQGYVRVRIDGEMRELTEDIELEKNKKHSIDVVVDRIIIKDGIAARLADSLETALKLADGKVVVDVIGEGELLFSEKHACPYCGFSIGELEPRLFSFNSPFGACPDCDGLGAKLEVDLDLVIPNDELTLKEHAIAPWEPQSSQYYPQLLEAVCRHYGIPMDVPVRDLPKEQLDKILYGSGGEPIYFRYTNDFGQVREQYIAFEGVIPNVERRYRETSSDYIREQMEKYMAEQPCPTCQGYRLKKESLAVLVGGKHIGEVTAMSVTEALAFFDGLELTEKEAQIARLILREIRDRLGFLQNVGLDYLTLSRSAGTLSGGEAQRIRLATQIGSRLTGVLYVLDEPSIGLHQRDNDRLIATLKSMRDLGNTLIVVEHDEDTMLAADYLIDIGPGAGIHGGEVISAGTPEEVMEDPNSLTGSYLSGKKFIPLPPERRKPDGRYIEIKGAREHNLKNVSVKIPLGTFVAVTGVSGSGKSTLVNEVLYKALAQKLHRAKAKPGEHRDIRGLEHLDKVIDIDQSPIGRTPRSNPATYTGVFDDIRDVFASTNEAKVRGYKKGRFSFNVKGGRCEACHGDGIIKIEMHFLPDVYVPCEVCHGKRYNRETLEVTYKGKNIAEVLDMTVEDALDFFASIPKIKRKLETLYDVGLGYMKLGQPATTLSGGEAQRVKLAAELHRRSNGRTLYILDEPTTGLHVDDIARLLDVLHRLVDNGDTVLVIEHNLDVIKTADYIIDLGPEGGDRGGQIVAVGTPEEVAEVEESHTGRYLNPILERDRARMQAQYEAVKA
With B3 the “DNA substrate bound in the form of UvrB-DNA complex (gel mobility shift, Eco UvrB at 100 nM)” value [2] was “more than 50% of the DNA substrate bound in the form of UvrB-DNA complex” and the “DNA substrate bound in the form of UvrB-DNA complex (gel mobility shift, Eco UvrB at 250 nM)” value [2] was “all the BPDE-containing substrate is bound as the UvrB-DNA complex”.
